The target of the experiment is hexahistidine-tagged VapD toxin from Campylobacter jejuni (VapD^Cje) (Campylobacter jejuni). Put plainly: crystal structure; co-expressed and co-purified VapD-VapW complex; sitting drop at 20°C, 20% PEG 1000, 100 mM sodium phosphate dibasic/citric acid pH 4.2, 200 mM lithium sulfate; space group C 2 2 21; 1.95 Å.

In turn, “strep-tagged VapW antitoxin from Campylobacter jejuni (VapW^Cje) (natural protein)” registered a stoichiometry N (VapD per VapW (2:2)) of 1.

The values above are taken from PMC11980593.
